Experiment [1] deals with CD22 on CD22-positive Raji or Ramos cells (human) (UniProt P20273). Kind of experiment: flow cytometry on CD22-positive Raji cells. In general terms: A flow cytometer gives signals particle by particle.
The target of experiment [2] is CD33 on CD33-positive HL-60 cells (human, UniProt P20138). Kind of experiment: flow cytometry on HL-60 cells, 50:50 mixture; competitor: mouse anti-human CD33 reference mAb.
Protocol: Binding to CD33-positive HL-60 cells were studied by flow cytometry. The determination of EC₅₀ based on the plotted curve gives an approximate value for the affinity.
The mAb or conjugate to be analyzed was prepared fresh form frozen stock by shifting the storage buffer to PBS, kept at 4° C., and used within a few days after preparation. […] The secondary antibody reagent was prepared at 0.015 mg/mL in PBS, supplemented with 0.1% BSA. The mAb stock was diluted in 10-fold dilution steps, starting from 5 mg/mL. An isotype control mAb (trastuzumab) was prepared accordingly. 20 uL from each dilution step of the anti-human CD33 mAb was added to wells containing HL-60 cells. After incubation for 1 h at 4° C. the cells were spun down and washed three times with 200 μl cold PBS, supplemented with 0.1% BSA. A solution containing 4% goat serum was added as a blocking agent, and incubated for 15 minutes. 20 μl from the secondary antibody reagent was subsequently added to each well, before incubation for 30 min at 4° C. in the dark.
The cells were washed twice, as described above, and re-suspended in 200 μL PBS, supplemented with 0.1% BSA. All samples were analysed in 96-well round or conical bottom plates. Fluorescent signals were recorded on a Beckham Coulter Cell lab Quant SC flow cytometer (Beckman Coulter; CA, USA). […]

Take “AGC1100 (anti-CD22 monoclonal antibody hLL2, also called epratuzumab)”: in experiment [1], the EC50 came to 9 nM.

B1: AGC1115 (AGC1100 conjugated to the water soluble chelator AGC0015) (antibody, INN chains, looked up, V domains shown)
VH: QVQLVQSGAEVKKPGSSVKVSCKASGYTFTSYWLHWVRQAPGQGLEWIGYINPRNDYTEYNQNFKDKATITADESTNTAYMELSSLRSEDTAFYFCARRDITTFYWGQGTTVTVSS
VL: DIQLTQSPSSLSASVGDRVTMSCKSSQSVLYSANHKNYLAWYQQKPGKAPKLLIYWASTRESGVPSRFSGSGSGTDFTFTISSLQPEDIATYYCHQYLSSWTFGGGTKLEIK
modifications: conjugated to chelator AGC0015
As for B1, the EC50 in experiment [1] amounted to 6 nM.

B2: AGC0700 (anti-CD33 monoclonal antibody, generated from the HuM195 template) (antibody, V domains shown)
VH: QVQLVQSGAEVKKPGSSVKVSCKASGYTFTDYNMHWVRQAPGQGLEWIGYIYPYNGGTGYNQKFKSKATITADESTNTAYMELSSLRSEDTAVYYCARGRPAMDYWGQGTLVTVSS
VL: DIQMTQSPSSLSASVGDRVTITCRASESVDNYGISFMNWFQQKPGKAPKLLIYAASNQGSGVPSRFSGSGSGTDFTLTISSLQPDDFATYYCQQSKEVPWTFGQGTKVEIKR
For B2, the “fold less antibody bound” value in experiment [2] is about 0.7 fold.

The EC50 is the concentration that produces a half-maximal response.

Source of the values: patent US20150110817A1, “RADIO-PHARMACEUTICAL COMPLEXES” (published 2015).
